This is an account of results in the supplement of paper PMC7877785.

± gives the uncertainty stated by the source.

The data set in a line: self-splicing fitness, log relative to wild type (ln ratio); higher = more splicing; Tetrahymena group I intron in knt gene, E. coli kanamycin selection, DiMSum; sequences stand for … in CUCUCU…GGAGGGAAAAGUUAUCAGGCAUGCACCUGGUAGCUAGUCUUUAAACCAAUAGAUUGCAUCGGUUUAAAAGGCAAGACCGUCAAAUUGCGGGAAAGGGGUCAACAGCCGUUCAGUACCAAGUCUCAGGGGAAACUUUGAGAUGGCCUUGCAAAGGGUAUGGUAAUAAGCUGACGGACAUGGUCCUAACCACGCAGCCAAGUCCUAAGUCAACAGAUCUUCUGUUGAUAUGGAUGCAGUUCACAGACUAAAUGUCGGUCGGGGAAGAUGUAUUCUUCUCAUAAGAUAUAGUCGGACCUCUCCUUAAUGGGAGCUAGCGGAUGAAGUGAUGCAACACUGGAGCCGCUGGGAACUAAUUUGUAUGCGAAAGUAUAUUGAUUAGUUUUGGAGUACUCGUGGUCG
In outline:
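DiMSum derived fitness as the error-weighted combination of fold changes across replicates, kanamycin versus no kanamycin, normalised to wild type. E. coli BL21(DE3) held the library, which randomised all eight P1ex-region intron nucleotides within the knt kanamycin-resistance gene on pET-22b(+). Six replicate transformations grew overnight at 37°C or 30°C on LB agar with or without 25 μg/mL kanamycin, also containing 100 μg/mL carbenicillin, 50 μM IPTG and 0.2% rhamnose, and pooled colonies were amplicon-sequenced on an Illumina HiSeq 2500.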

In the case of GUAGAGCAAUAUUACGGAUC, the “self-splicing fitness (ln)” value reads like this: (30 °C) -0.404 ± 0.1; (37 °C) -0.0325 ± 0.14.
Taken in the same sequence, the figures for AGCAAGCAAUAUUACGUAGA were -2.83 ± 0.15 and -2.44 ± 0.2.
In the case of GAUCAGCAAUAUUACGAGAA, the “self-splicing fitness (ln)” value is, setting by setting: (30 °C) -1.89 ± 0.17; (37 °C) -1.16 ± 0.14.
For the sequence CGGGAGCAAUAUUACGACGG, the “self-splicing fitness (ln)” value (30 °C) is -1.4 ± 0.23 and the “self-splicing fitness (ln)” value (37 °C) is -0.65 ± 0.42.
Taken in the same sequence, the figures for AUCUAGCAAUAUUACGACAU were 0.0957 ± 0.013 and 0.273 ± 0.032.
For ACACAGCAAUAUUACGAUGA, the “self-splicing fitness (ln)” value reads like this: (30 °C) -0.664 ± 0.048; (37 °C) -0.444 ± 0.057.
On to CGUUAGCAAUAUUACGAGUG, for which the “self-splicing fitness (ln)” value was -1.18 ± 0.078 (30 °C) and 0.184 ± 0.094 (37 °C).
Taken in the same sequence, the figures for GCGCAGCAAUAUUACGGGAA were -1.92 ± 0.086 and -0.883 ± 0.066.
For the sequence AAGUAGCAAUAUUACGAGGC, under “30 °C”, the “self-splicing fitness (ln)” value is -3.44 ± 0.29.
As to CCAGAGCAAUAUUACGCGCA, the “self-splicing fitness (ln)” value (30 °C) is -3.16 ± 0.25.
On to CCACAGCAAUAUUACGGCGG, for which the “self-splicing fitness (ln)” value was -3.15 ± 0.14 (30 °C) and -1.08 ± 0.12 (37 °C).
Consider UACUAGCAAUAUUACGGAGA, for which the “self-splicing fitness (ln)” value is, setting by setting: (30 °C) -2.59 ± 0.17; (37 °C) -1.84 ± 0.16.
As for UCCGAGCAAUAUUACGUCAA, the “self-splicing fitness (ln)” value reads like this: (30 °C) -2.89 ± 0.26; (37 °C) -2.27 ± 0.36.
In the same order, the values of UACUAGCAAUAUUACGUGAG are -3.38 ± 0.13 and -2.56 ± 0.23.
Taken in the same sequence, the figures for CGCAAGCAAUAUUACGACUA were -1.47 ± 0.22 and -0.703 ± 0.2.
Consider CAAAAGCAAUAUUACGUUCU, for which the “self-splicing fitness (ln)” value reads like this: (30 °C) -1.3 ± 0.14; (37 °C) -0.926 ± 0.14.
Turning to AAAGAGCAAUAUUACGUGUG, the “self-splicing fitness (ln)” value reads like this: (30 °C) -3.84 ± 0.18; (37 °C) -2.57 ± 0.19.
In the case of GAAAAGCAAUAUUACGGGAA, the “self-splicing fitness (ln)” value reads like this: (30 °C) -2.07 ± 0.14; (37 °C) -0.425 ± 0.13.
In the same order, the values of CGCUAGCAAUAUUACGUAUC are -3.84 ± 0.33 and -2.76 ± 0.31.
Taken in the same sequence, the figures for CGAAAGCAAUAUUACGUAUU were -3.3 ± 0.15 and -1.51 ± 0.13.
Consider UACAAGCAAUAUUACGGAUC, for which the “self-splicing fitness (ln)” value runs as follows: (30 °C) -2.59 ± 0.21; (37 °C) 0.047 ± 0.15.
As for ACGGAGCAAUAUUACGAUCU, the “self-splicing fitness (ln)” value by setting is: (30 °C) -2.61 ± 0.14; (37 °C) -1.37 ± 0.11.
Turning to GGCGAGCAAUAUUACGGGCU, the “self-splicing fitness (ln)” value by setting is: (30 °C) -2.07 ± 0.36; (37 °C) -1.23 ± 0.28.
For ACUCAGCAAUAUUACGUGGG, the “self-splicing fitness (ln)” value is -3.7 ± 0.18 (30 °C) and -2.9 ± 0.2 (37 °C).
Taken in the same sequence, the figures for GAACAGCAAUAUUACGUUCG were -2.12 ± 0.099 and -1.38 ± 0.096.
In the same order, the values of CAAAAGCAAUAUUACGACUU are -1.83 ± 0.098 and -0.224 ± 0.098.
In the same order, the values of UAAAAGCAAUAUUACGGACU are -1.21 ± 0.072 and -0.711 ± 0.094.
UAUAAGCAAUAUUACGGGUU: the “self-splicing fitness (ln)” value reads like this: (30 °C) -3.04 ± 0.16; (37 °C) -3.53 ± 0.23.
For the sequence GUGGAGCAAUAUUACGUCGA, the “self-splicing fitness (ln)” value is, setting by setting: (30 °C) -3.42 ± 0.37; (37 °C) -1.48 ± 0.3.
With CCAUAGCAAUAUUACGGGCG, the “self-splicing fitness (ln)” value (30 °C) was -1.02 ± 0.097 and the “self-splicing fitness (ln)” value (37 °C) is -0.644 ± 0.11.
On to CUGCAGCAAUAUUACGAGCA, for which the “self-splicing fitness (ln)” value runs as follows: (30 °C) -3.11 ± 0.21; (37 °C) -2.38 ± 0.22.
Take UCCCAGCAAUAUUACGACAG: the “self-splicing fitness (ln)” value (37 °C) is -3.55 ± 0.37.
For GGACAGCAAUAUUACGUUGG, the “self-splicing fitness (ln)” value (30 °C) was -1.69 ± 0.088 and the “self-splicing fitness (ln)” value (37 °C) was -0.723 ± 0.11.
CCAUAGCAAUAUUACGUGAU: the “self-splicing fitness (ln)” value is -2.78 ± 0.097 (30 °C) and -2.76 ± 0.16 (37 °C).
Taken in the same sequence, the figures for CCACAGCAAUAUUACGUGCA were -4.24 ± 0.24 and -2.5 ± 0.12.
In the same order, the values of UGUUAGCAAUAUUACGAUUC are -2.39 ± 0.18 and -0.83 ± 0.18.
In the same order, the values of CUCGAGCAAUAUUACGCAUC are -3.3 ± 0.22 and -2.49 ± 0.3.
For the sequence GGACAGCAAUAUUACGCCUG, the “self-splicing fitness (ln)” value (30 °C) was -2.65 ± 0.15 and the “self-splicing fitness (ln)” value (37 °C) was -0.758 ± 0.13.
